T1: TGF-β2 (UniProt P61812 303-414)
T1 sequence (looked up): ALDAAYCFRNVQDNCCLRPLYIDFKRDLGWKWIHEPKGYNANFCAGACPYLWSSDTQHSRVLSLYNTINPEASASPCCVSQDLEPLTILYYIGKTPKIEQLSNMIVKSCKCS

T2: TGF-β3 (UniProt P10600 301-412)
T2 sequence (looked up): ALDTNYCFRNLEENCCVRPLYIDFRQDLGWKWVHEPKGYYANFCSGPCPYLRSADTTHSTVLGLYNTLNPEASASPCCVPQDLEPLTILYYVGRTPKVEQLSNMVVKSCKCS

B1: anti-TGF-β monoclonal antibody 1D11 (antibody, V domains shown)
VH: QVQLQQSGPELVRPGASVKLSCKASGYIFITYWMNWVKQRPGQGLEWIGQIFPASGSTNYNEMFEGKATLTVDTSSSTAYMQLSSLTSEDSAVYYCARGDGNYALDAMDYWGQGTSVTVSS
VL: DIVLTQSPASLAVSLGQRATISCRASESVDSYGNSFMHWYQQKSGQPPKLLIYLASNLESGVPARFSGSGSRTDFTLTIDPVEADDAATYYCQQNNEDPLTFGAGTKLEIK
B2: WTFc (wild-type FN3 fused to rabbit IgG constant region CH2/CH3, His6 tag) (Fc fusion)
chain (part 1 of 2): AVSDVPRKLEVVAATPTSLLISWDAPIKRRLYYRITYGETGGNSPVQEFTVPGSKSTATISGLKPGVDYTITVYAVTYPAPYSKPISINYR
chain (part 2 of 2): HHHHHH
notes: Control fusion protein; also called wild-type FN3 fusion protein; not shown: rabbit IgG constant region, CH2/CH3 (Cγ2-Cγ3) domains

Experiments:
[1] = molecular target: T3, active TGF-β1, recombinant (Ala279-Ser390) (UniProt P01137 279-390); assay: SPR, chip coated with active TGF-β, positive control antibody
T3 construct: range 279-390; The background describes the growth factor domain as a dimer; also called purified active TGF-β1

[2] = molecular target: T3, active TGF-β1, recombinant …; assay: SPR, kinetic analysis on active TGF-β
TGF-β2 = molecular target: T1, TGF-β2; assay: ELISA on coated TGF-β isoforms
TGF-β3 = molecular target: T2, TGF-β3; assay: ELISA on coated TGF-β isoforms
[3] = molecular target: T4, active TGF-β on the surface of human CD4+CD25+ Tregs (human, UniProt P01137 279-390, The active form is a disulfide-linked homodimer of the growth factor domain; one chain is given.); assay: confocal microscopy of human Tregs, detected with anti-rabbit Fab-AF488
T4 construct: also called surface TGF-β; surface active TGF-β
Description: FIGS. 5A and 5B represent functional characterization of 6Fc. FIG. 5A represents an effect of 6Fc on phosphorylation of SMAD2/3. […] As a control, WTFc was used (shown on the right panel). Phosphorylation of SMAD2,3 was assessed by flow cytometry (solid line). Dotted lines show isotype control staining. FIG. 5B represents confocal images of Tregs stained with the monobody-Ig fusion proteins. Purified human PBMC-derived Tregs were mixed with 6Fc or WTFc (40 μg/ml), followed by anti-rabbit Fab-AF488 (green) and Hoechst-33342 (blue) staining. Single-cell images were obtained using an LSM-510 confocal microscope (×40).

T3 sequence (P01137 279-390 limits assumed, form in doubt): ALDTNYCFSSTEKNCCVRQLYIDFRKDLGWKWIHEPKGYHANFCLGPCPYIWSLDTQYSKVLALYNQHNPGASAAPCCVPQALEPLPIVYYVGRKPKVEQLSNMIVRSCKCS
T4 sequence (P01137 279-390 limits assumed): as the sequence (P01137 279-390 limits assumed, form in doubt) above

Row | Binder | Kd [1] [nM] | koff [2] [s⁻¹] | kon [2] [M⁻¹ s⁻¹] | binding result (TGF-β2) | binding result (TGF-β3) | binding result [3]
1 | B1 | 1.9 | 0.00028 | 14000 |  |  | 
2 | B2 |  |  |  | no binding | no binding | no binding (tested: 40 µg/ml)
